The target of experiment [1] is membrane-bound recombinant E1E2 (hepatitis C virus (strain not stated)).
Experiment [2] addresses soluble recombinant E1E2 (hepatitis C virus (strain not stated)).
In experiment [3] the target is T1, E2 alone (as compared with E1E2) (Hepatitis C virus genotype 1b, strain …).
T1 chain: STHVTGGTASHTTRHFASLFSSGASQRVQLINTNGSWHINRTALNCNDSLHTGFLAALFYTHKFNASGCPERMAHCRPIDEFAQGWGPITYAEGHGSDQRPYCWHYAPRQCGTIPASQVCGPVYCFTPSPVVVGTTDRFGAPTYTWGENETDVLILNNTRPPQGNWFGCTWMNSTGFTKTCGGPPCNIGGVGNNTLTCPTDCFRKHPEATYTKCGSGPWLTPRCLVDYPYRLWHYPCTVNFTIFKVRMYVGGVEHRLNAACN

B1: CBH4B (antibody, format not stated, as tested on E1E2 and E2 alone) (antibody, V domains shown)
VH: QIQLVQSGAEVKKPGSSVKVSCRASGGSFGTYGITWVRQAPGQGLEWVGGIVPLFDRPNYAQKFQDRVAITADESTSTAYMELSSLRFDDTAVYYCAREADIVVGGSSYFDSWGQGTLVTVTK
VL: ESVLTQSPGTLSLSPGERATLSCRASQSVSSTYVAWYQQKPGQAPRLLIYDASIRATGVPDRFSGGGSGTDFTLTISRLEPEDFAVYYCQQYGGSPFFGGGTKVEIK
A word on the Kd: it is the equilibrium constant for the complex coming apart. Take B1: the results for the Kd in experiment [1], in experiment [2] and in experiment [3] were 3.1 nM, 19 nM and 0.08 nM, respectively.
